As usually defined, the Kd is the concentration at which binding is half-saturated. Read a low Kd as a tighter complex.

This series addresses T1, Hop1 CBR WT (Saccharomyces cerevisiae) (UniProt P20050).
T1 sequence: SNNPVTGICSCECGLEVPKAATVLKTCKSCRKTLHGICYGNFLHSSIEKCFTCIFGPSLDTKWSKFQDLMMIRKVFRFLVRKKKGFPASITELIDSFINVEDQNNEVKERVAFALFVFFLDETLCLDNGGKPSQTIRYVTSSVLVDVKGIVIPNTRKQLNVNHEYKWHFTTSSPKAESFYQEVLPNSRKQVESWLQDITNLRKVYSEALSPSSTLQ
Kind of series: EMSA. Particulars: EMSA: 20 mM Tris-HCl pH 7.5, 25 mM NaCl, 2 mM beta-mercaptoethanol, 10% glycerol; 50 nM nucleosome or DNA; 15 min room temperature; 6% TBE-acrylamide gel, 0.2X ….

As to “TGGAGAATCCCGGTGCCGAGGCCGCTCAATTGGTCGTAGACAGCTCTAGCACCGCTTAAACGCACGTACGCGCTGTCCCCCGCGTTTTAACCGCCAAGGGGATTACTCCCTAGTCTCCAGGCACGTGTCAGATATATACATCCTGT (double strand) [Widom 601 mononucleosome (human histones)]”, the Kd amounted to 470 nM.

The values are drawn from article PMC10907721.
